Laboratory results taken from EP4671274A1.

Target: recombinant His-tagged canine interleukin-13 (cIL-13) (canine) (UniProt Q9N0W9)
Experiment: cell-based or functional assay

recombinant His-tagged canine interleukin-13 (cIL-13) (canine), sequence (Q9N0W9 other isoform, or with tags, fused parts or gaps): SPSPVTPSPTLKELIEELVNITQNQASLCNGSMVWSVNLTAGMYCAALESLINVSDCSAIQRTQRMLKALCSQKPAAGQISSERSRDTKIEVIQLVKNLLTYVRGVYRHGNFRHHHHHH

IL-13-dependent TF-1 cell proliferation inhibition IC50: 2.9 to 4.2 nM | Inhibitory Activity on TF-1 Cell Proliferation, IC50: 3.97 nM
B1: mouse monoclonal antibody 32A10-#20 (antibody, from another filing, V domains shown)
VH: EVQLQQSGPELVKPGASVKVSCKTSGYSFTDYPIYWVRQSHGESLEWIGYIDPYNGGTTYNQNFKDKATLTVDKSSSTAFMHLNSLTSEDSAVYFCATAVVATDVMENWGQGTSVTVSS
VL: DIVLTQSQKFMSTSVGDRVSITCKASQNVRNAVAWFQQKPGQSPKALIYLASNRYTGVPDHFTGSGSGTDFTLTISNVQSEDLADYFCLQHWNYPLTFGAGTKLELK
